According to publication PMC3799859:

Target: FLAG-tagged Sig-1R, Q99720
Assay: co-immunoprecipitation (IP: V5, Western blot for FLAG, quantified)
Conditions: chain shown with the change; n = 4; parent: est. 100; read off a plot

FLAG-tagged Sig-1R, Q99720, sequence (Q99720 whole entry): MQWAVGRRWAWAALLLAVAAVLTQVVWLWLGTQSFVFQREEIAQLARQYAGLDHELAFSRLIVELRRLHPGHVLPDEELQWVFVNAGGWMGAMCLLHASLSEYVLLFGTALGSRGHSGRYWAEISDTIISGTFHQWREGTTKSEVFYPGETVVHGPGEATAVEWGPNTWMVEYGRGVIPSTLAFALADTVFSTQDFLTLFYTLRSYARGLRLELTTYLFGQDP

percent of parent: 190%
B1: ΔIRE1-V5/His (ER lumenal domain of human IRE1), O75460 D123P (protein)
chain: IFGSTSTVTLPETLLFVSTLDGSLHAVSKRTGSIKWTLKEDPVLQVPTHVEEPAFLPDPNDGSLYTLGSKNNEGLTKLPFTIPELVQASPCRSSDGILYMGKKQPIWYVIDLLTGEKQQTLSSAFADSLCPSTSLLYLGRTEYTITMYDTKTRELRWNATYFDYAASLPEDDVDYKMSHFVSNGDGLVVTVDSESGDVLWIQNYASPVVAFYVWQREGLRKVMHINVAVETLRYLTFMSGEVGRITKWKYPFPKETEAKSKLTPTLYVGKYSTSLYASPSMVHEGVAVVPRGSTLPLLEGPQTDGVTIGDKGECVITPSTDVKFDPGLKSKNKLNYLRNYWLLIGHHETPLSASTKMLERFPNNLPKHRENVIPADSEKKSFEEVINLVDQTSENAPTTVSRDVEEKPAHAPARPEAPVDSMLKD
